Experimental data taken from patent US20130109846A1 (published 2013).

Biological target: human CD28 (human, UniProt P10747 19-220)
Assay: cell-based or functional assay

Row | Binder | Luciferase assay (EC50) [nM] | MLR assay (EC50) [nM]
1 | 1h-99-221 (other) VH: EVQLLESGGGLVQPGGSLRLSCAASGFTFARSNMSWVRQAPGKGLEWVSWIEDTGTQTFYADSVKGRFTISRDNSKNTLYLQMNSLRAEDTAVYYCAKSPFGPLYGFDYRGQGTLVTVSS | 12 | 17
2 | 1h-99-228 (other) VH: EVQLLESGGGLVQPGGSLRLSCAASGFTFHRANMSWVRQAPGKGLEWVSWIEDTGTQTFYADSVKGRFTISRDNSKNTLYLQMNSLRAEDTAVYYCAKSPFGPLYGSDYRGQGTLVTVSS | 12 | 46
3 | 1h-99-267 (other) VH: EVQLLESGGGLVQPGGSLRLSCAASGFTFYRSNMSWVRQAPGKGLEWVSWIEASGVQTFYADSVKGRFTISRDNSKNTLYLQMNSLRAEDTAVYYCAKSPFGPLYGFDYRGQGTLVTVSS | 6 | 4
4 | 1h-99-243 (other) VH: EVQLLESGGGLVQPGGSLRLSCAASGFTFDSANMSWGRQAPGKGLEWVSWIEASGVQTFYADSVKGRFTISRDNSKNTLYLQMNSLRAEDTAVYYCAKSPFGPLYGFDYRGQGTLVTVSS | 4 | 8
5 | 1h-99-241 (other) VH: EVQLLESGGGLVQPGGSLRLSCAASGFTFDSANMSWVRQAPGKGLEWVSWIENNGPQTFYADSVKGRFTISRDDSKNTLYLQMNSLRAEDTAVYYCAKSPFGPLYGFDYRGQGTLVTVSS | 17 | 22
6 | 1h-99-262 (other) VH: EVQLLESGGGLVQPGGSLRLSCAASGFTFYKANMSWVRQAPGKGLEWVSWIEAPGVQTFYADSVRGRFTISRDNSKNTLYLQMNSLRAEDTAVYYCARSPFGPLYGFDYRGQGTLVTVSS | 6 | 8
7 | 1h-99-229 (other) VH: EVQLLESGGGLVQPGGSLRLSCAASGFTFARTNMSWARQAPGKGLEWVSWIEDTGTQTFYADSVKGRFTISRDNSKNTLYLQMNSLRAEDTAVYYCAKSPFGPLYGFDYRGQGTLVTVSS | 15 | 24
8 | 1h-99-264 (other) VH: EVQLLESGGGLVQPGGSLRLSCAASGFTFDKSNMSWVRQAPGKGLEWVSWIEAPGVQTFYADSVRGRFTISRDNSKNTLYLQMNSLRAEDTAVYYCARSPFGPLYGFDYRGQGTLVTVSS | 5 | 3
9 | 1h-99-269 (other) VH: EVQLLESGGGLVQPGGSLRLSCAASGFTFKSANMSWVRQAPGKGLEWVSWIEASGVQTFYADSVKGRFTISRDNSKNTLYLQMNSLRAEDTAVYYCAKSPFGPLYGFDYRGQGTLVTVSS | 10 | 5
10 | 1h-99-249 (other) VH: EVQLLESGGGLVQPGGSLRLSCAASGFTFDSANMSWVRQAPGKGLEWVSWIEDIGVQTFYADSVKGRFTISRDNSKNTLYLQMNSLRAEDTAVYYCAKSPFGPLYGFDYRGQGTLVTVSS | 6 | 11
11 | 1h-99-227 (other) VH: EVQLLESGGGLVQPGGSLRLSCAASGFTFNHANMSWVRQAPGKGLEWVSWIEDTGTQTFYADSVKGRFTISRDNYKNTLYLQMNSLRAEDTAVYYCAKSPFGPLYGFDYRGQGTLVTVSS | 18 | 33
12 | 1h-99-254 (other) VH: EVQLLESGGGLVQPGGSLRLSCAASGFTFDSANMSWARQAPGKGLEWVSWIESSGGQTFYADSVKGRFTISRDNSKNTLYLQMNSLRAEDTAVYYCAKSPFGPLYGFDYRGQGTLVTVSS | 11 | 7
13 | 1h-99-250 (other) VH: EVQLLESGGGLVQPGGSLRLSCAASGFTFDSANMSWARQAPGKGLEWVSWIEATGGQTFYADSVKGRFTISRDNSKNTLYLQMNSLRAEDTAVYYCAKSPFGPLYGFDYRGQGTLVTVSS | 9 | 8
14 | 1h-99-245 (other) VH: EVQLLESGGGLVQPGGSLRLSCAASGFTFDSANMSWARQAPGKGLEWVSWIEASGFQTFYADSVKGRFTISRDNSKNTLYLQMNSLRAEDTAVYYCAKSPFGPLYGFDYRGQGTLVTVSS | 6 | 11
15 | 1h-99-256 (other) VH: EVQLLESGGGLVQPGGSLRLSCAASGFTFDSANMSWVRQAPGKGLEWVSWIEAIGVQTFYADSVKGRFTISRDNSKNTLYLQMNSLRAEDTAVYYCAKSPFGPLYGFDYRGQGTLVTVSS | 9 | 7
16 | 1h-99-266 (other) VH: EVQLLESGGGLVQPGGSLRLSCAASGFTFYRSNMSWVRQAPGKGLEWVSWIEAPGVQTFYADSVRGRFTISRDNSKNTLYLQMNSLRAEDTAVYYCARSPFGPLYGFDYRGQGTLVTVSS | 8 | 4
17 | 1h-99-230 (other) VH: EVQLLESGGGLVQPGGSLRLSCAASGFTFDSANMSWVRQAPGKGLEWVSWIESIGVQTFYADSVKGRFTISRDNSKNTLYLQMNSLRAEDTAVYYCAKSPFGPLYGFDYRGQGTLVTVSS | 9 | 14
18 | 1h-99-225 (other) VH: EVQLLESGGGLVQPGGSLRLSCAASGFTFRLQNMSWVRQAPGKGLEWVSWIEDTGTQTFYADSVKGRFTISRDNSKNTLYLQMNSLRAEDTAVYYCAKSPFGPLYGFDYRGQGTLVTVSS | 14 | 28
19 | 1h-99-268 (other) VH: EVQLLESGGGLVQPGGSLRLSCAASGFTFKSANMSWVRQAPGKGLEWVSWIEAPGVQTFYADSVRGRFTISRDNSKNTLYLQMNSLRAEDTAVYYCARSPFGPLYGFDYRGQGTLVTVSS | 11 | 13
20 | 1h-99-263 (other) VH: EVQLLESGGGLVQPGGSLRLSCAASGFTFYKANMSWVRQAPGKGLEWVSWIEASGVQTFYADSVKGRFTISRDNSKNTLYLQMNSLRAEDTAVYYCAKSPFGPLYGFDYRGQGTLVTVSS | 6 | 4
21 | 1h-99-246 (other) VH: EVQLLESGGGLVQPGGSLRLSCAASGFTFDSANMSWARQAPGKGLEWVSWIEASGGQTFYADSVKGRFTISRDNSKNTLYLQMNSLRAEDTAVYYCAKSPFGPLYGFDYRGQGTLVTVSS | 3 | 8
22 | 1h-99-260 (other) VH: EVQLLESGGGLVQPGGSLRLSCAASGFTFDSANMSWARQAPGKGLEWVSWIEANGPQTFYADSVKGRFTISRDNSKNTLYLQMNSLRAEDTAVYYCAKSPFGPLYGFDYRGQGTLVTVSS | 11 | 13
23 | 1h-99-222 (other) VH: EVQLLESGGGLVQPGGSLRLSCAASGFTFQRSNMSWVRQAPGKGLEWVSWIEDTGTQTFYADSVKGRFTISRDNSKNTLYLQMNSLRAEDTAVYYCAKSPFGPLYGFDYRGQGTLVTVSS | 16 | 28
24 | 1h-99-226 (other) VH: EVQLLESGGGLVQPGGSLRLSCAASGFTFKSANMSWVRQAPGKGLEWVSWIEDTGTQTFYADSVKGRFTISRDNSKNTLYLQMNSLRAEDTAVYYCAKSPFGPLYGFDYRGQGTLVTVSS | 10 | 23
25 | 1h-99-224 (other) VH: EVQLLESGGGLVQPGGSLRLSCAASGFTFSHNNMSWVRQAPGKGLEWVSWIEDTGTQTFYADSVKGRFTISRDNSKNTLYLQMNSLRAEDTAVYYCAKSPFGPLYGFDYRGQGTLVTVSS | 15 | 28
26 | 1h-99-236 (other) VH: EVQLLESGGGLVQPGGSLRLSCAASGFTFDSANMSWVRQAPGKGLEWVSWIEAPGKQTFYADSVKGRFTISRDNSKNTLYLQMNSLRAEDTAVYYCAKSPFGPLYGFDYRGRGTLVTVSS | 21 | 14
27 | 1h-34 (other) VL: DIQMTQSPSSLSASVGDRVTITCRASQYIGTSLAWYQQKPGKAPKLLIYHSSGLQSGVPLRFSGSGSGTDFTLTISSLQPEDFATYYCQQTALRPFTFGQGTKVEIKR | 2900 | –
28 | 1h-35-2 (other) VL: DIQMTQSPSSLSASVGDRVTITCRASQYIGSALGWYQQKPGKAPKLLIYRASHLQSGVPSRFSGSGSGTDFTLTISSLQPEDFATYYCQQLAIRPFTFGQGTKVEIKR | 279 | 197
29 | 1h-35 (other) VL: DIQMTQSPSSLSASVGDRVTITCRASQYIGSALSWYQQKPGKAPKLLIYRASNLQSGVPSRFSGSGSGTDFTLTISSLQPEDFATYYCQQLAIRPFTFGQGTKVEIKR | 1900 | 2000
